These results are taken from PMC9740503, “[^68Ga]Ga-DATA^5m-LM4, a PET Radiotracer in the Diagnosis of SST2R-Positive Tumors: Preclinical and First Clinical Results” (International Journal of Molecular Sciences, 2022).

For one series, the target named is T1, human SST2R (Homo sapiens, UniProt P30874).
T1 construct: expressed in transfected cells
Kind of series: Competition binding against [125I-Tyr25]LTT-SS28 in HEK293-SST2R cell membranes. The note with it: HEK293-SST2R cell membrane homogenates; 1 h at 22 °C; 50 mM HEPES pH 7.4 binding buffer; mean ± sd, n = 3 independent experiments in triplicate; read-out: IC50, displacement of [125I-Tyr25]LTT-SS28 from SST2R binding sites. Here is the method:
The binding affinities of DATA^5m-LM4 and [^natGa]Ga-DATA^5m-LM4 for the human SST2R were determined via competition binding assays against [^125I-Tyr^25]LTT-SS28 in freshly harvested HEK293-SST2R cell membranes. As depicted in Figure 2, DATA^5m-LM4 as well as its [^natGa]Ga-tagged version displaced [^125I-Tyr^25]LTT-SS28 from SST2R-binding sites in the membrane homogenates in a monophasic and dose-dependent manner.
Competition binding assays for DATA^5m-LM4 and [^natGa]Ga-DATA^5m-LM4 were performed in freshly harvested HEK293-SST2R cell membranes against [^125I-Tyr^25]LTT-SS28 [30, 33]. […] Filters were collected and their activity measured in a γ-counter (automated multi-sample well-type instrument with a NaI(Tl) 3″ crystal, Canberra Packard Cobra^TM Quantum U5003/1, Auto-Gamma® counting system). The half-maximal inhibitory concentration (IC50) values were calculated by nonlinear regression for a one-site model applying the PRISM^TM 6.0 GraphPad software (San Diego, CA, USA) and represent mean IC50 ± sd values from at least three independent experiments were performed in triplicate.
A general note: In a radioligand displacement assay an active substance lowers the binding of a labelled ligand.

A short description of series [1]: Biodistribution in SCID mice bearing twin HEK293-SST2R and wtHEK293 tumors. Conditions: male, mouse, iv, 10 pmol, total radioactivity. It counts as in vivo. How it is done:
Inocula containing a suspension of freshly-harvested HEK293-SST2R cells (150 μL, 1.2 × 10^7cells in normal saline) and wtHEK293 cells (150 μL, 0.6 × 10^7 cells in normal saline) were subcutaneously (sc) injected in the right and left flanks of male SCID mice (21.5–25.0 g body weight, six weeks of age on arrival day; NCSR “Demokritos” Animal House, Athens, Greece). Mice were kept under aseptic conditions for about 2 weeks until well-palpable tumors (300–600 mg) were grown at the inoculation sites. […] Samples of blood and tissues of interest were collected along with implanted tumors, weighted and counted in the gamma counter. Biodistribution results were calculated as percent of the injected activity per gram tissue (%IA/g) with the aid of appropriate standards of the administered dose and the Microsoft Excel program. Results are presented as mean %IA/g values ± sd, n = 4 per time point, as determined by the PRISM^TM 6.0 GraphPad software (San Diego, CA, USA). […]

The test system of the next series is HEK293-SST2R cells. The experiment in a line: Radioligand uptake/internalization in HEK293-SST2R cells. It is filed as cell-based, human. Conditions: 1 h at 37 °C, 0.5 pmol total peptide, specific, % of total added activity, mean ± sd, 3 independent experiments in triplicate. Here is the method:
This distinct cell distribution pattern between [^67Ga]Ga-DATA^5m-LM4 and [^67Ga]Ga-DOTA-TOC is consistent with an SST2R antagonist and agonist behavior, respectively. […] Cells were seeded in poly-lysine coated six-well plates (1 × 10^6/well) and grew to confluent monolayers overnight. At the day of the experiment, plates were placed on ice and rinsed twice with chilled internalization medium (DMEM Glutamax-I supplemented by 1% (v/v) FBS). […] In the upper three wells internalization medium was added (150 μL, total) and in the lower three a solution of TATE to a final concentration of 1 μM (150 μL, non-specific). After 60 min incubation at 37 °C, the medium was removed and cells were washed with ice-cold 0.5% BSA-PBS. Cells were incubated (2 × 5 min) at ambient temperature in acid wash buffer (50 mM glycine in 0.1 M NaCl, pH 2.8) and supernatants were collected (membrane-bound fraction). After rinsing with 0.5% BSA-PBS, the cells were lysed by treatment with 1 N NaOH; the lysates were collected (internalized fraction). Samples were measured in the γ-counter and cell-associated/internalized radioactivity vs. total added activity per well was calculated. Specific values were obtained by subtracting values in the presence of excess TATE (lower well triplicates) from those without the addition of blocker (upper well triplicates). […]

Another series deals with SST2R. The note with it: against the same radioligand; read-out: IC50, SST2R autoradiography; cited from earlier work. The source says: On the other hand, by changing the metal to Lu the IC50 determined for [^natL ...

Read-outs that look alike come from different tables or passages of the source. Positions of bridges follow the written chain, without caps; N, C: chain ends. Non-standard residues stand in square brackets, D forms with d. Residues, ends and D or L forms follow the SMILES beside them. *: point of attachment. DOTA = O=C(O)CN1CCN(CC(=O)O)CCN(CC(=O)*)CCN(CC(=O)O)CC1; X1 = CN(CC(=O)O)C1(CCCCC(=O)*)CN(CC(=O)O)CCN(CC(=O)O)C1; dPhe(4-NHCONH2) = NC(=O)Nc1ccc(C[C@@H](N)C(=O)O)cc1; Phe(4-Cl) = N[C@@H](Cc1ccc(Cl)cc1)C(=O)O; 4Pal = N[C@@H](Cc1ccncc1)C(=O)O

T1 sequence (P30874 whole entry): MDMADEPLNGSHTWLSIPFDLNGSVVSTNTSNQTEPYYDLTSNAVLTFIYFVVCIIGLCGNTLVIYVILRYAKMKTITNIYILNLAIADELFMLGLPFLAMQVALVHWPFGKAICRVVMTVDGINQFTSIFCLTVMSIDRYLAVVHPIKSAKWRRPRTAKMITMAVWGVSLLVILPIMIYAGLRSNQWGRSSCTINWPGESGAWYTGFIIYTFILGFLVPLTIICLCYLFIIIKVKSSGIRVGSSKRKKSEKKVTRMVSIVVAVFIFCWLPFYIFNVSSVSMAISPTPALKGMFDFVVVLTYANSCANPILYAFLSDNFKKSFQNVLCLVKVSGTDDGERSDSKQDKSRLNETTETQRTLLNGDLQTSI

As usually defined, the IC50 is the concentration that gives 50% inhibition. Regarding `C[C@@H](O)[C@@H]1NC(=O)[C@H](CCCCN)NC(=O)[C@@H](Cc2ccc(NC(N)=O)cc2)NC(=O)[C@H](Cc2ccncc2)NC(=O)[C@H](NC(=O)[C@H](Cc2ccc(Cl)cc2)NC(=O)CCCCC2(N(C)CC(=O)O)CN(CC(=O)O)CCN(CC(=O)O)C2)CSSC[C@@H](C(=O)N[C@H](Cc2ccc(O)cc2)C(N)=O)NC1=O` [DATA^5m-LM4] (X1-[Phe(4-Cl)][dC][4Pal][dPhe(4-NHCONH2)]KTC[dY]-NH2; disulfide 2-7), at human SST2R, the IC50 was 1.24 ± 0.2 nM.
Consider “[^natGa]Ga-DATA^5m-LM4: DATA5m-LM4 tagged with natural gallium (DATA5m-[Phe(4-Cl)][dC][4Pal][dPhe(4-NHCONH2)]KTC[dY]-NH2; disulfide 2-7; also: complexed with natural gallium)”, for which the IC50 with human SST2R was found to be 1.61 ± 0.32 nM.
Regarding `C[C@@H](O)[C@@H]1NC(=O)[C@H](CCCCN)NC(=O)[C@@H](Cc2ccc(NC(N)=O)cc2)NC(=O)[C@H](Cc2ccc(O)cc2)NC(=O)[C@H](NC(=O)[C@H](Cc2ccc(Cl)cc2)NC(=O)CN2CCN(CC(=O)O)CCN(CC(=O)O)CCN(CC(=O)O)CC2)CSSC[C@@H](C(=O)N[C@H](Cc2ccc(O)cc2)C(N)=O)NC1=O` [[^67Ga]Ga-DOTA-LM3, metal not drawn] ({DOTA}-[Phe(4-Cl)][dC]Y[dPhe(4-NHCONH2)]KTC[dY]-NH2; disulfide 2-7), the tissue uptake at 1 h in series [1] (HEK293-SST2R tumor (Tu+), 1 h pi, iv 10 pmol total peptide, mean ± sd, n = 4, read-out: Tu+ (HEK293-SST2R tumor) uptake) worked out at 25.3 ± 6.23 %ID/g; in series [1] (in vivo, Blood uptake) it was 1.18 ± 0.03 %ID/g; in series [1] (in vivo, Femur uptake) it was 1.39 ± 0.39 %ID/g; in series [1] (in vivo, Heart uptake), 1.54 ± 0.78 %ID/g; in series [1] (in vivo, Intestines uptake), 1.26 ± 0.52 %ID/g; in series [1] (in vivo, Kidneys uptake), 36 ± 5.96 %ID/g. Besides, the tissue uptake at 1 h was found to be 1.82 ± 0.63 %ID/g in series [1] (in vivo, Liver uptake); 3 ± 0.77 %ID/g in series [1] (in vivo, Lungs uptake); 0.56 ± 0.22 %ID/g in series [1] (in vivo, Muscle uptake); 1.49 ± 0.71 %ID/g in series [1] (in vivo, Pancreas uptake); 1.73 ± 0.85 %ID/g in series [1] (in vivo, Spleen uptake); 0.8 ± 0.17 %ID/g in series [1] (in vivo, Stomach uptake). Besides, the tissue uptake at 1 h in series [1] (wtHEK293 tumor (Tu-), 1 h pi, iv 10 pmol total peptide, mean ± sd, n = 4, read-out: Tu- (wtHEK293 tumor) uptake) came out at 1.45 ± 0.27 %ID/g. Besides, the tissue uptake at 4 h in series [1] (HEK293-SST2R tumor (Tu+), 4 h pi, iv 10 pmol total peptide, mean ± sd, n = 4, read-out: Tu+ (HEK293-SST2R tumor) uptake) turned out to be 16.8 ± 1.22 %ID/g; in series [1] (in vivo, Blood uptake), 1.73 ± 0.47 %ID/g; in series [1] (in vivo, Femur uptake), 0.67 ± 0.14 %ID/g; in series [1] (in vivo, Heart uptake), 0.66 ± 0.14 %ID/g; in series [1] (in vivo, Intestines uptake) it was 1.41 ± 0.37 %ID/g; in series [1] (in vivo, Kidneys uptake) it was 37.6 ± 3.44 %ID/g. The tissue uptake at 4 h stood at 1.43 ± 0.19 %ID/g in series [1] (in vivo, Liver uptake); 1.21 ± 0.24 %ID/g in series [1] (in vivo, Lungs uptake); 0.25 ± 0.06 %ID/g in series [1] (in vivo, Muscle uptake); 1.24 ± 0.44 %ID/g in series [1] (in vivo, Pancreas uptake); 1.06 ± 0.25 %ID/g in series [1] (in vivo, Spleen uptake); 0.5 ± 0.08 %ID/g in series [1] (in vivo, Stomach uptake). Further, the tissue uptake at 4 h in series [1] (wtHEK293 tumor (Tu-), 4 h pi, iv 10 pmol total peptide, mean ± sd, n = 4, read-out: Tu- (wtHEK293 tumor) uptake) was determined as 1.13 ± 0.31 %ID/g. In the series with HEK293-SST2R cells, the “total cell uptake (membrane bound + internalized)” value is on record as 2.51 ± 0.36%.
For “DOTA-DPhe-c[DCys-Tyr-DAph(Cbm)-Lys-Thr-Cys]-DTyr-NH2 (disulfide) [DOTA-LM3, DOTA-derivatized SST2R antagonist LM3]”, the IC50 with SST2R is 1.4 ± 0.5 nM.
